One molecule from publication PMC3390244 can be followed below.

In this series the target is human transferrin receptor (hTfR, CD71) (human, UniProt P02786 89-760). Description: filter binding.
Sequence of human transferrin receptor (hTfR, CD71) (P02786 89-760): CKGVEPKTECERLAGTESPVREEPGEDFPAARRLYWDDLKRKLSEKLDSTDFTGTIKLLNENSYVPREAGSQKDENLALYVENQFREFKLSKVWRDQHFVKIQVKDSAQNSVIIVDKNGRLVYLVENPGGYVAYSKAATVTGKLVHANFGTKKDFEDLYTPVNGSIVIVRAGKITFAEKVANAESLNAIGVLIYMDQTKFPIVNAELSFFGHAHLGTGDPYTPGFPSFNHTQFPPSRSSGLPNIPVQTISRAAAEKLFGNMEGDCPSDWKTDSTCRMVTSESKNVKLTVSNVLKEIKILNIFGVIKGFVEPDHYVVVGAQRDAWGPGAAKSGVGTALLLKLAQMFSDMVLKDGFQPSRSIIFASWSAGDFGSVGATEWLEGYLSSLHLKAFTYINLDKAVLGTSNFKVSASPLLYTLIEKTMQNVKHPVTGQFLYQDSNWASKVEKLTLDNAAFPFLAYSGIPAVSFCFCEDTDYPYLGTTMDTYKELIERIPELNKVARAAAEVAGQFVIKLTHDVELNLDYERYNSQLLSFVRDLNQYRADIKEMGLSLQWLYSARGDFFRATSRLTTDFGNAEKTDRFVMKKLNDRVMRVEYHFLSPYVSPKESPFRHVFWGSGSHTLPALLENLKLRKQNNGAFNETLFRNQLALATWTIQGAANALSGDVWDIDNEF

For orientation: Kd means a measure of binding affinity in units of concentration. A low value points to a tighter complex. As to GGGGGAUCAAUCCAAGGGACCCGGAAACGCUCCCUUACACCCC (structured_RNA, 2'-fluoro C and U; 3' inverted dT; 5' thiol) [c2.min], the Kd was 102 nM.
